# Test results published in paper PMC11915804, “In situ structures of the contractile nanomachine myophage Mu in both its extended and contracted states” (Journal of Virology, 2025).
# B1: G(+) type fiber protein gp49 (natural protein, phage Mu, UniProt Q9T1V0 1-504, looked up)
# chain: MFYIDNDSGVTVMPPVSAQRSAIVRWFSEGDGNNVITWPGMDWFNIVQAELLNTLEEAGIQPDKTKLNQLALSIKAIMSNNALLIKNNLSEIKTAGASAQRTARENLDIYDASLNKKGLVQLTSATDSPSETLAATAKAVKIAMDNANARLAKDRNGADIPNKPLFIQNLGLQETVNRARNAVQKNGDTLSGGLTFENDSILAWIRNTDWAKIGFKNDADSDTDSYMWFETGDNGNEYFKWRSKQSTTTKDLMNLKWDALSVLVNAIVNGEVISKSANGLRIAYGNYGFFIRNDGSNTYFMLTNSGDNMGTYNGLRPLWINNATGAVSMGRGLNVSGDTLSDRFAINSSNGMWIQMRDNNAIFGKNIVNTDSAQALLRQNHADRKFMIGGLGNKQFGIYMINNSRTANGTDGQAYMDNNGNWLCGAQVIPGNYANFDSRYVRDVRLGTQSLTGGLSRDYKAPSGHVITGFHTNGDWEMQGGDDKVYIRPVQKNINGTWYNVASA
# notes: G(+) type tail fiber protein gp49 of myophage Mu, as it stands in the virion; only the N-terminus was modelled; Trimer; six fibers in the baseplate; Model deposited here; source: phage Mu virions grown on E. coli (ATCC 23724), purified (PEG 8000/NaCl precipitation, CsCl gradient)
# B2: baseplate wedge protein 2 (BW2) gp47 (natural protein, phage Mu, UniProt Q9T1V2 1-360, looked up)
# chain: MAYSPPTLSSLIARTEQNIEQRLPGSWPQAREKTLSAIAYAQAGLAAGCHEHISWVGRQIIPSTADEDELLEHCRFWGVRRKQATAASGPLTVTTSAATTIPAGTRWQRADGVVYSLADTIVIDRAGTTEITVTALAAGEAGNTGENTLLTLITPVACVVSDAITVKGFSGGADIESAAELLSRLEYRVQYPPFGGNQFDYVRWAREVSGVTRAWCFPTWKGGGTVGVTFVMDNRSNIFPQPADVERVADYIAGHTDPITGLIVGQPDGVNVTVFAPKAKPVNPRIYISPKTAELKQAITNAINTMFFNEVMPGGALAPSRIIRAVAGVTGLDDFEVRFPTEIQRSENTELLTAGTIEWL
# notes: baseplate wedge protein 2 gp47 of myophage Mu, as it stands in the virion; Two conformers (BW2-i, BW2-o) in each of the six wedges; Model deposited here; also called BW2-i; BW2-o; source: phage Mu virions grown on E. coli (ATCC 23724), purified (PEG 8000/NaCl precipitation, CsCl gradient)
# B3: tail tube protein gp40 (natural protein, phage Mu, UniProt P79679 1-118, looked up)
# chain: MAGNQRQGVAFIRVNGMELESMEGASFTPSGITREEVTGSRVYGWKGKPRAAKVECKIPGGGPIGLDEIIDWENITVEFQADTGETWMLANAWQADEPKNDGGEISLVLMAKQSKRIA
# notes: tail tube protein gp40 of myophage Mu, as it stands in the virion; Hexameric rings, 30 of them stacked in the tail; Model deposited here; source: phage Mu virions grown on E. coli (ATCC 23724), purified (PEG 8000/NaCl precipitation, CsCl gradient)
# B4: portal protein gp29 (natural protein, phage Mu, UniProt Q9T1W5 1-512, looked up)
# chain: MGRILDISGQPFDFDDEMQSRSDELAMVMKRTQEHPSSGVTPNRAAQMLRDAERGDLTAQADLAFDMEEKDTHLFSELSKRRLAIQALEWRIAPARDASAQEKKDADMLNEYLHDAAWFEDALFDAGDAILKGYSMQEIEWGWLGKMRVPVALHHRDPALFCANPDNLNELRLRDASYHGLELQPFGWFMHRAKSRTGYVGTNGLVRTLIWPFIFKNYSVRDFAEFLEIYGLPMRVGKYPTGSTNREKATLMQAVMDIGRRAGGIIPMGMTLDFQSAADGQSDPFMAMIGWAEKAISKAILGGTLTTEAGDKGARSLGEVHDEVRREIRNADVGQLARSINRDLIYPLLALNSDSTIDINRLPGIVFDTSEAGDITALSDAIPKLAAG
# notes: portal protein gp29 of myophage Mu, as it stands in the virion; Dodecamer; Model deposited here; source: phage Mu virions grown on E. coli (ATCC 23724), purified (PEG 8000/NaCl precipitation, CsCl gradient); copies: 12
# B5: tail sheath protein gp39 (natural protein, phage Mu, UniProt P79678 1-495, looked up)
# chain: MSDISFNAIPSDVRVPLTYIEFDNSNAVSGTPAPRQRVLMFGQSGSKASAAPNVPVRIRSGSQASAAFGQGSMLALMADAFLNANRVAELWCIPQGNGTGNAAVGEISLSGTAGENGSLVTYIAGQRLAVSVAAGATGAALADLLVARIKGQPDLPVTAEVRADSGDDDTHADVVLSAKFTGALSAVDVRWNYYAGETTPYGIITAFKAASGKNGNPDISASIAGMGDLQYKYIVMPYTDEPNLNLLRTELQERWGPVNQADGFAVTVLSGTYGDISTFGVSRNDHLISCMGIAGAPEPSYLYAATLCAVASQALSIDPARPLQTLTLPGRMPPAVGDRFTWSERNALLFDGISTFNVNDGGEMQIERMITMYRTNKYGDSDPSYLNVNTIATLSYLRYSLRTRITQKFPNYKLASDGTRFATGQAVVTPSVIKTELLALFEEWENAGLVEDFDTFKEELYVARNKDDKDRLDVLCGPNLINQFRIFAAQVQFIL
# notes: tail sheath protein gp39 of myophage Mu, as it stands in the virion; Hexameric rings, 30 of them stacked in the tail; Model deposited here; source: phage Mu virions grown on E. coli (ATCC 23724), purified (PEG 8000/NaCl precipitation, CsCl gradient)
# B6: tube initiator protein gp43 (natural protein, phage Mu, UniProt P08557 1-495, looked up)
# chain: MFEDALNAVNAVRDKTGGGRKTTGKGTFRNVPFLVIEEQKQAGGRRLVKREYPLRDTGGVNDLGKKLRSRTFSACILNSNAETARDEAGALMDALDAPGSGELVHPDFGTVDVMVDSWECRTKADELNYYAFTVTVYPSLQDTAPDAETDTSAAVPAQAVAVTGSLGDTLSSVWQTVKDGTAAATAVMEAVTGVIDDISDAVDNLGVTQTVSGLMGSLSAMKGSVTSLINQPAMLASSLMGALSGVSSLCDTRTAFSTWNRLAQRFERRHAATAGRQGTITTSYNSPVAEKNIATLNYVMLAAAQTYRAEAASQALTAALDFSRRMDNAARAPVLDAPSTTTGTASGASSTSATVTQGQLQLTAITPDGGFSQVSFSDSGTATPPVFESVSDIEKTTAMLGAALDSVILTASEQGFSTDSVQLTQLRLLVVADLEKRGLQLAGSESHHLPETLPAMVALYRFTGNSRNWQRLARRNGISNPLFVPGGVSIEVINE
# notes: tube initiator protein gp43 (N protein, DNA circularization protein) of myophage Mu, as it stands in the virion; Hexamer; Model deposited here; also called N protein; DNA circularization protein; source: phage Mu virions grown on E. coli (ATCC 23724), purified (PEG 8000/NaCl precipitation, CsCl gradient)
# B7: hub protein gp44 (natural protein, phage Mu, UniProt P08558 1-379, looked up)
# chain: MSNTVTLRADGRLFTGWTSVSVTRSIESVAGYFELGVNVPPGTDLSGLAPGKKFTLEIGGQIVCTGYIDSRRRQMTADSMKITVAGRDKTADLIDCAAVYSGGQWKNRTLEQIARDLCAPYGVTVRWELSDKESSAAFPGFTLDHSETVYEALVRASRARGVLMTSNAAGELVFSRAASTATDELVLGENLLTLDFEEDFRDRFSEYTVKGYARANGAEGDDIDAKSIVSRKGTATDSDVTRYRPMIIIADSKITAKDAQARALREQRRRLAKSITFEAEIDGWTRKDGQLWMPNLLVTIDASKYAIKTTELLVSKVTLILNDQDGLKTRVSLAPREGFLVPVESDRKNRKGGDSNGGIDALVEDYYRRHPEKTPPWKE
# notes: baseplate hub protein gp44 of myophage Mu, as it stands in the virion; Trimer; Model deposited here; source: phage Mu virions grown on E. coli (ATCC 23724), purified (PEG 8000/NaCl precipitation, CsCl gradient)
# What was measured:
# Assay in all cases: cryo-EM structure; purified phage Mu virions in the extended state (native phage) in phage buffer (10 mM MgCl2, 5 mM NaCl, 10 mM Tris-HCl, pH 7.4); icosahedral, symmetry-mismatch and local reconstruction; 3.2 Å (3-fold capsid), 3.4 Å (portal-adaptor), 3.5 Å (terminator-tail), 3.3 Å (baseplate)
# [1] = biological target: tail terminator protein gp37 (phage Mu)
# [2] = biological target: adaptor protein gp36 (phage Mu)
# [3] = biological target: major capsid protein (MCP) gp34 (phage Mu)
# [4] = biological target: tape measure protein (TMP) gp42 (phage Mu)
# [5] = biological target: the molecule itself
# [6] = biological target: B6; conditions: both partners purified
# tail sheath protein gp39 = biological target: B5; conditions: both partners purified
molecule,measurement,setting,value
tail terminator protein gp37 (natural protein),stoichiometry N,[1],6
adaptor protein gp36 (natural protein),stoichiometry N,[2],12
major capsid protein (MCP) gp34 (natural protein),stoichiometry N,[3],415
tape measure protein (TMP) gp42 (natural protein),stoichiometry N,[4],3
B1,stoichiometry N,[5],3
B2,binding result,[5],binds
same,binding result,[6],binds
B3,binding result,tail sheath protein gp39,binds
same,stoichiometry N,[5],6
B4,stoichiometry N,[5],12
B5,stoichiometry N,[5],6
B6,stoichiometry N,[5],6
B7,stoichiometry N,[5],3
